Laboratory results as given in patent US20140308269A1 (published 2014).
Positions count from the first letter of the chain named.

B1: HscD (humanized 1A6 scFv HumD) (scFv)
scFv: DIQMTQSPSSLSASVGDRVTITCRASQSISNNLHWYQQKPGKAPKLLIYHASQSISGVPSRFSGSGSGTDFTLTISSLQPEDFATYYCQQSNSWPYTFGQGTKVEIKRGGGGSGGGGSGGGGSGGGGSEVQLVESGGGLVQPGGSLRLSCAASGFNIKDTYIHWVRQAPGKGLEWVARIDPANDNTIYADSVKGRFTISSDDSKNTAYLQMNSLRAEDTAVYYCTTSGYWFAYWGQGTLVTVSS
notes: not shown: carboxy-terminal His tag of vector pBAD/pIII A
B2: HscA (humanized 1A6 scFv HumA) (scFv)
scFv: B1 scFv with T226D
notes: also called humanized scFv A; scFV3; not shown: carboxy-terminal His tag of vector pBAD/pIII A
B3: HscF (humanized 1A6 scFv HumF) (scFv)
scFv: B1 scFv with S200A
notes: as for B1
B4: HscH (humanized 1A6 scFv HumH) (scFv)
scFv: B1 scFv with Y49K, A189D, D190P, S191K, K193Q, S200A
notes: as for B1
B5: HscI (humanized 1A6 scFv HumI) (scFv)
scFv: B1 scFv with Y49K, V165M, A189D, D190P, S191K, K193Q, I198M, S200A, D202T
notes: as for B1
B6: HscC (humanized 1A6 scFv HumC) (scFv)
scFv: B1 scFv with S200G
notes: as for B1
B7: HscB (humanized 1A6 scFv HumB) (scFv)
scFv: B1 scFv with T226A
notes: also called Hum19; Hum 19 scFv; not shown: carboxy-terminal His tag of vector pBAD/pIII A
B8: Msc1A6 (parental mouse monoclonal antibody 1A6 in the form of scFv) (scFv, V domains shown)
VH: EVQLQQSGAELVKPGASLKLSCTASGFNIKDTYIHWMKQRPEQGLEWIGRIDPANDNTIYDPKVQGKATMTADTSSNTAYLQLNSLTSEDTAVYYCTTSGYWFAYWGQGTLVTVSS
VL: DIVLTQSPATLSVTPGDSVSLSCRASQSISNNLHWYQQKHSESPRLLIKHASQSISGIPSRFSGSGSGTDFTLSINSVETEDFGMFFCQQSNSWPYTFGGGTKLEIKR
notes: Tested as a single-chain Fv (one polypeptide); also called Mouse 1A6 scFv; mouse IA6 scFv

The binders below were run against T1, soluble ICAM-1 (Bender MedSystems) (UniProt P05362 28-480, limits assumed) (assay: ELISA on plate-coated soluble ICAM-1; reference Msc1A6).
T1 construct: Bought soluble protein coated on the ELISA plate
T1 sequence (P05362 28-480 limits assumed): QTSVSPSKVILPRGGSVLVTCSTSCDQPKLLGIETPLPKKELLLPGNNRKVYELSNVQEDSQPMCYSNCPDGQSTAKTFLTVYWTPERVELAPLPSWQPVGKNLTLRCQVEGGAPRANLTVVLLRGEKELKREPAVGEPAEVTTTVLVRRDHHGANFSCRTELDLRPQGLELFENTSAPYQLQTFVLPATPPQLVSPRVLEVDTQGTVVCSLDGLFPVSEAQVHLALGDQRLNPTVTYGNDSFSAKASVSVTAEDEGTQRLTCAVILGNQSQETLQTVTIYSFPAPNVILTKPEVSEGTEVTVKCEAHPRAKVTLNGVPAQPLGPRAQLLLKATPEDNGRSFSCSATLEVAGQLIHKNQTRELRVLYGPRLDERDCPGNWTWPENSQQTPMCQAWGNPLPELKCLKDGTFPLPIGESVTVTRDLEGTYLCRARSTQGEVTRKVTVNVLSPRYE
Method: (§1) To evaluate the binding affinity of histidine-tagged human single chain (hsc) proteins soluble ICAM was used in an ELISA assay. A 96-well EIA plate (Corning, Inc.) was coated with 100 μl/well soluble ICAM-1 (Bender MedSystems) at 1 μg/ml in 0.1 M. NaHCO₃. After washing with TBST (50 mM Tris, pH8.0, 150 mM NaCl, 0.05% Tween-20), the plate was blocked with 3% non-fat milk in TBST at 37° C. for 1 hour. After washing with TBST, the plate was incubated with scFv samples (100 μl/well) diluted in 1% non-fat milk/TBST solution at room temperature for 1 hour. After washing with TBST, the horse radish peroxidase-conjugated anti-His (C-term) antibody (Invitrogen) diluted 1:2000 in 1% non-fat milk/TBST was added and the plate was incubated at room temperature for 1 hour. The plate was washed thoroughly with TBST and 100 μl/well 3,3′,5,5′-tetramethylbenzidine substrate solution (Kirkegaard and Perry Laboratories) was added. After 5 min incubation, the color development was stopped by adding […] 0.12 N HCl and the absorbance of the wells at 450 nm was measured by a plate reader (ICN).
In the case of B1, the “fold higher binding affinity than the parental mouse scFv” value is reported as over 10 fold. B2 was tested, and the “fold higher binding affinity than the parental mouse scFv” value was over 10 fold. With B3 the “fold higher binding affinity than the parental mouse scFv” value was over 10 fold. B4 was tested, and the “fold higher binding affinity than the parental mouse scFv” value was over 10 fold. For B5, the “fold higher binding affinity than the parental mouse scFv” value was over 10 fold. B6 was tested, and the “fold higher binding affinity than the parental mouse scFv” value was over 10 fold. B7 was tested, and the “fold higher binding affinity than the parental mouse scFv” value was over 10 fold.

Each binder was assayed against T2, ICAM-1 on HeLa cells (UniProt P05362 28-532, limits assumed) (assay: cell-based or functional assay).
T2 sequence (P05362 28-532 limits assumed): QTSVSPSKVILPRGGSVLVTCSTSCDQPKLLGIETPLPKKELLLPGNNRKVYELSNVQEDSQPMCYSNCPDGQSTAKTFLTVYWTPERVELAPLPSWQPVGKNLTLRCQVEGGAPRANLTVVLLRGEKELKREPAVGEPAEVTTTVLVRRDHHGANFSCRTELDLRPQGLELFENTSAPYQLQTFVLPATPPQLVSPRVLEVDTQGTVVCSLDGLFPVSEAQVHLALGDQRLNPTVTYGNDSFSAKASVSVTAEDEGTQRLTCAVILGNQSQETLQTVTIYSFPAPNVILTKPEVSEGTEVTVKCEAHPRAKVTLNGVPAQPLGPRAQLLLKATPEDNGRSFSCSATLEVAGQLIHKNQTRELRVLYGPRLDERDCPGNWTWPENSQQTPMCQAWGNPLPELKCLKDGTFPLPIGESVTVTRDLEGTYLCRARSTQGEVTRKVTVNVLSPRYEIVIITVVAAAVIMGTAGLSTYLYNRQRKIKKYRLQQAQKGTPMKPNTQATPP
With B1 the “EC 50 (µM): 50% protection of HeLa cells against HRV15 infection at 1 MOI” value (from here on “EC 50 (µM): 50% protection of HeLa cells”) was 0.05 µM. For B3, the “EC 50 (µM): 50% protection of HeLa cells” value was 0.29 µM. In the case of B4, the “EC 50 (µM): 50% protection of HeLa cells” value is reported as 4.2 µM. For B5, the “EC 50 (µM): 50% protection of HeLa cells” value was over 10 µM. For B8, the “EC 50 (µM): 50% protection of HeLa cells” value was over 10 µM.

These binders were tested against T1, soluble ICAM-1 (Bender MedSystems) (assay: ELISA on plate-coated soluble ICAM-1, His-tagged scFv detected with anti-His-HRP).
Method: as §1
With B1 the Kd was 23.3 nM. In the case of B2, the Kd is reported as 150 nM. For B3, the Kd was 46 nM. Work on B4 yielded a Kd of 20.9 nM. With B5 the Kd was 150 nM. For B6, the Kd was 58 nM. Binder B7 has a Kd of 26.2 nM. For B8, the Kd was 1180 nM.

Target: T2, ICAM-1 on HeLa cells
Assay: cell-based or functional assay
Remark: another data set of the same source
For B7, the “EC50 of protection of HeLa cells from HRV infection, against the parental mouse 1A6 scFv protein” value was over 60 fold.
